From patent US20230324413A1, “RENIN-BASED ANALYSIS OF HEPCIDIN” (TAMPERE UNIVERSITY FOUNDATION SR, priority 2020, published 2023)

Molecular target: T1, human renin (Homo sapiens, UniProt P00797)
T1 construct: purchased Biovision, Inc. San Francisco, CA
T1 sequence (P00797 67-406): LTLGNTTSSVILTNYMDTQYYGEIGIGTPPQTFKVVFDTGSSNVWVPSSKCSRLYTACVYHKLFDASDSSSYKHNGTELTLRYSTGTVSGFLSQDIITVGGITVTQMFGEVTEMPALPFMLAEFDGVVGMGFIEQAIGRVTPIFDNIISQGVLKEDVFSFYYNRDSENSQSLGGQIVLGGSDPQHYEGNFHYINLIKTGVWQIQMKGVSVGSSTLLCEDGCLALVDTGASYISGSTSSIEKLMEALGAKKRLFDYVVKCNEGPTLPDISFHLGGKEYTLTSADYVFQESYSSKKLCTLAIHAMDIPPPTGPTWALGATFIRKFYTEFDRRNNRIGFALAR
Assay: Renin inhibition screening kit, kinetic fluorescence measurement of renin enzyme activity
Format: biochemical
Details: for Inhibition of renin activity (in words): 10 nM, 100 nM and 500 nM, FIG. 5; for Mean inhibitory effect on renin activity: 37° C, 60 min kinetic fluorescence
From the text: Human hepcidin-25/LEAP-1 (hep-25, with disulfide bonds between Cys7-Cys23, Cys10-Cys13, […], and Cys14-Cys22, purity assessed by HPLC≥98.0%) was purchased from Peptides International (Peptides International Inc, Louisville, KY). N-terminal part of hepcidin, DTHFPICIF (hep-9; SEQ ID NO: 6) and DTHFP (hep-5; SEQ ID NO: 7), were synthetized by Proteogenix (Schiltigheim, France). Renin inhibition screening kit was purchased from Biovision (Biovision, Inc. San Francisco, CA). ForteBio's 96 well black plates were used in the measurements.
Hep-25, hep-9, and hep-5 were used in final sample concentrations of 10 nM, 100 nM and 500 nM to measure inhibition of renin enzyme activity. The concentrations used represent normal levels of hepcidin in human circulation. Fluorescence measurement was performed using Perkin Elmer UV/VIS Envision multimode plate reader. Excitation and emission wavelengths were 328 and 552 nm, respectively. Fluorescence was recorded every 60 s for 60 min at 37° C. Rate of renin inhibition was calculated following the manufacture's instructions.

Inhibition of renin activity (in words) | Mean inhibitory effect on renin activity (peptide concentration 10 nM) | Mean inhibitory effect on renin activity (peptide concentration 100 nM) | Mean inhibitory effect on renin activity (peptide concentration 500 nM) | Substance
inhibited renin activity | 50.1% | 50.0% | 58.6% | DTHFP [hepcidin-5, N-terminal part of hepcidin, 5 amino acids, synthetized by Proteogenix]
 | 20.4% | 29.2% | 38.3% | hepcidin-25: mature bioactive 25 amino acid hepcidin peptide, SEQ ID NO: 1; purchased from Peptides International
inhibited renin activity | 41.25% | 41.15% | 42.65% | DTHFPICIF [hepcidin-9]
